Measurements reported in US20170128546A1.

Key:
[1] = molecular target: lysozyme variant 2-3-7 (human)
[2] = molecular target: wild type human lysozyme (human) (UniProt P61626)
[3] = molecular target: lysozyme variant 2-3-7 (human); remark: listed apart in the source

Q: What does the source list for mucin?
A: IC50 - Mucin (µg/mL): concentration of polyanion that inhibits lytic activity of the enzyme on Micrococcus luteus by 50% [1]: 73 µg/mL; IC50 - Mucin (µg/mL): concentration of polyanion that inhibits lytic activity of the enzyme on Micrococcus luteus by 50% [2]: 11 µg/mL; fold increase in IC50 for mucin against WT-LYZ [3]: 6.91 fold
